# From the supplement of paper PMC10065799, “High-throughput profiling of sequence recognition by tyrosine kinases and SH2 domains using bacterial peptide display” (eLife, 2023)
# System: c-Src
# Assay: phosphorylation enrichment, bacterial display (enrichment ratio); higher = better substrate or ligand; peptides without Tyr show the background
# 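Throughout, for SH2 binding enrichment of the phosphorylated peptide, bacterial display: peptide library displayed on the E. coli surface as eCPX fusions, selected cells deep-sequenced, score is each peptide's frequency after selection divided by its frequency in the input.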
# 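Throughout, for phosphorylation enrichment, bacterial display: 11-residue human phosphosite peptides and single-mutation variants displayed on the E. coli surface, counted by deep sequencing, each peptide's frequency after selection divided by its frequency in the unselected input library; frequency after pTyr selection over input frequency; kinase dosed for 20-30% of maximal phosphorylation in three min.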
row,Sequence,phosphorylation enrichment
1,VVLEDYLDIKN [CLCNKB_Y138],0.421
2,SPPPAFTPMSG [ERBB4_Y1056_Y1056F],0.442
3,HSDYQYSQRSQ [PKP2_Y168],0.519
4,VRQQVYKKVEE [HADHA_Y283],0.397
5,FPHVIYARLWR [SMAD4_Y95],5.17
6,HVSISYDIPLT [GAB1_Y307_P311L],1.01
7,RELGEYPLAEY [ALDH1A3_Y492_A493P],0.492
8,RLAQRYLIWEC [SCN5A_Y694],0.492
9,EPFEVYRIVPE [IRF8_Y110_K108E_YF],3.68
10,SFNNKYGMVAQ [APOB_Y276_K273N_YF],0.384
11,QGCSIYKDYYR [PLA2G2D_Y82],4.85
12,TTPGPYRSIYF [MPG_Y71],1.27
13,PYRQWYESHYA [RPS8_Y113],2.35
14,GMTRNYIIFIE [BCO2_Y294],0.498
15,IKIMGSSIRTI [IDS_Y490_Y490S],0.414
16,IKRIDYEFVEM [ADA_Y84_A83D],0.404
17,LTNDRYVATLT [IL6ST_Y396_L397V],0.69

row,Sequence,phosphorylation enrichment
1,GTCGGYCSVLG [RAB18_Y202_A198T],0.42
2,VRFVDYVLFRS [FAM189B_Y361_S358F],0.477
3,MALDRYVAICK [OR2B11_Y127],0.454
4,MTKEQYIKMNQ [ARFGEF2_Y797_R802Q],0.341
5,NIFSFYLSRDP [CTSD_Y232],0.409
6,FGTAQYCCRMG [LRRK2_Y2023_I2020T_YF],0.403
7,KKHFSYAWPFY [BRDT_Y291],0.375
8,DGTGHYLGNAC [GATA5_Y208_C210G],0.311
9,LSSNLYYRWLT [CNGA3_Y168_P163L],6.55
10,MCDSHYLESRS [CLK1_Y56],0.424
11,GGQEDYDRLRP [RAC3_Y64_A59G],0.494
12,ECKASCPGKIT [PRSS3_Y232_Y232C],0.359
13,LLKMMYLMLDN [STAT1_Y203_K201M],0.611
14,NHFKIYNPCAE [PTEN_Y68_L70P_YF],0.474
15,IKKFKYRIEEH [GJA1_Y137_G138R],0.363
16,GRFSGYKSKHG [EPHA3_Y570_C568S],0.364

# Molecular target: Grb2 SH2 (UniProt P62993)
# Sequence (P62993 whole entry, looked up): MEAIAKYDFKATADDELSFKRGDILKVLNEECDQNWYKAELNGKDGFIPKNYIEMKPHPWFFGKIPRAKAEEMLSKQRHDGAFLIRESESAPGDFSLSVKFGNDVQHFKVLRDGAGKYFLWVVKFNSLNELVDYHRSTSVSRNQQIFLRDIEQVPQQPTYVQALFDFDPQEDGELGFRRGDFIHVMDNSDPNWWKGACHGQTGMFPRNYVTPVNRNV
# Assay: SH2 binding enrichment of the phosphorylated peptide, bacterial display (enrichment ratio); higher = better substrate or ligand; peptides without Tyr show the background
row,Sequence,SH2 binding enrichment
1,VVLEDYLDIKN [CLCNKB_Y138],0.747
2,SPPPAFTPMSG [ERBB4_Y1056_Y1056F],0.67
3,HSDYQYSQRSQ [PKP2_Y168],0.91
4,VRQQVYKKVEE [HADHA_Y283],0.736
5,FPHVIYARLWR [SMAD4_Y95],0.767
6,HVSISYDIPLT [GAB1_Y307_P311L],0.96
7,RELGEYPLAEY [ALDH1A3_Y492_A493P],0.795
8,RLAQRYLIWEC [SCN5A_Y694],0.982
9,EPFEVYRIVPE [IRF8_Y110_K108E_YF],0.916
10,SFNNKYGMVAQ [APOB_Y276_K273N_YF],0.852
11,QGCSIYKDYYR [PLA2G2D_Y82],1.02
12,TTPGPYRSIYF [MPG_Y71],1.48
13,PYRQWYESHYA [RPS8_Y113],1.33
14,GMTRNYIIFIE [BCO2_Y294],1.34
15,IKIMGSSIRTI [IDS_Y490_Y490S],0.836
16,IKRIDYEFVEM [ADA_Y84_A83D],0.967
17,LTNDRYVATLT [IL6ST_Y396_L397V],0.764

row,Sequence,SH2 binding enrichment
1,GTCGGYCSVLG [RAB18_Y202_A198T],0.842
2,VRFVDYVLFRS [FAM189B_Y361_S358F],2.04
3,MALDRYVAICK [OR2B11_Y127],0.856
4,MTKEQYIKMNQ [ARFGEF2_Y797_R802Q],0.968
5,NIFSFYLSRDP [CTSD_Y232],1.52
6,FGTAQYCCRMG [LRRK2_Y2023_I2020T_YF],0.978
7,KKHFSYAWPFY [BRDT_Y291],1.73
8,DGTGHYLGNAC [GATA5_Y208_C210G],0.966
9,LSSNLYYRWLT [CNGA3_Y168_P163L],1.29
10,MCDSHYLESRS [CLK1_Y56],1.04
11,GGQEDYDRLRP [RAC3_Y64_A59G],0.821
12,ECKASCPGKIT [PRSS3_Y232_Y232C],0.791
13,LLKMMYLMLDN [STAT1_Y203_K201M],1.63
14,NHFKIYNPCAE [PTEN_Y68_L70P_YF],0.901
15,IKKFKYRIEEH [GJA1_Y137_G138R],0.847
16,GRFSGYKSKHG [EPHA3_Y570_C568S],0.857

# Molecular target: SHP2-C SH2
# Assay: as above
row,Sequence,SH2 binding enrichment
1,VVLEDYLDIKN [CLCNKB_Y138],0.786
2,SPPPAFTPMSG [ERBB4_Y1056_Y1056F],0.615
3,HSDYQYSQRSQ [PKP2_Y168],0.587
4,VRQQVYKKVEE [HADHA_Y283],0.513
5,FPHVIYARLWR [SMAD4_Y95],0.61
6,HVSISYDIPLT [GAB1_Y307_P311L],0.91
7,RELGEYPLAEY [ALDH1A3_Y492_A493P],0.291
8,RLAQRYLIWEC [SCN5A_Y694],0.655
9,EPFEVYRIVPE [IRF8_Y110_K108E_YF],0.535
10,SFNNKYGMVAQ [APOB_Y276_K273N_YF],0.68
11,QGCSIYKDYYR [PLA2G2D_Y82],0.813
12,TTPGPYRSIYF [MPG_Y71],6.08
13,PYRQWYESHYA [RPS8_Y113],1.09
14,GMTRNYIIFIE [BCO2_Y294],1.32
15,IKIMGSSIRTI [IDS_Y490_Y490S],0.717
16,IKRIDYEFVEM [ADA_Y84_A83D],0.56
17,LTNDRYVATLT [IL6ST_Y396_L397V],0.527

row,Sequence,SH2 binding enrichment
1,GTCGGYCSVLG [RAB18_Y202_A198T],2.08
2,VRFVDYVLFRS [FAM189B_Y361_S358F],1.77
3,MALDRYVAICK [OR2B11_Y127],0.97
4,MTKEQYIKMNQ [ARFGEF2_Y797_R802Q],0.487
5,NIFSFYLSRDP [CTSD_Y232],1.64
6,FGTAQYCCRMG [LRRK2_Y2023_I2020T_YF],0.863
7,KKHFSYAWPFY [BRDT_Y291],1.46
8,DGTGHYLGNAC [GATA5_Y208_C210G],0.561
9,LSSNLYYRWLT [CNGA3_Y168_P163L],1.27
10,MCDSHYLESRS [CLK1_Y56],0.719
11,GGQEDYDRLRP [RAC3_Y64_A59G],0.767
12,ECKASCPGKIT [PRSS3_Y232_Y232C],0.556
13,LLKMMYLMLDN [STAT1_Y203_K201M],1.39
14,NHFKIYNPCAE [PTEN_Y68_L70P_YF],0.798
15,IKKFKYRIEEH [GJA1_Y137_G138R],0.77
16,GRFSGYKSKHG [EPHA3_Y570_C568S],0.631

# Molecular target: c-Src SH2
# Assay: as above
row,Sequence,SH2 binding enrichment
1,VVLEDYLDIKN [CLCNKB_Y138],0.497
2,SPPPAFTPMSG [ERBB4_Y1056_Y1056F],0.364
3,HSDYQYSQRSQ [PKP2_Y168],0.484
4,VRQQVYKKVEE [HADHA_Y283],0.427
5,FPHVIYARLWR [SMAD4_Y95],0.425
6,HVSISYDIPLT [GAB1_Y307_P311L],3.72
7,RELGEYPLAEY [ALDH1A3_Y492_A493P],2.46
8,RLAQRYLIWEC [SCN5A_Y694],0.691
9,EPFEVYRIVPE [IRF8_Y110_K108E_YF],0.521
10,SFNNKYGMVAQ [APOB_Y276_K273N_YF],0.435
11,QGCSIYKDYYR [PLA2G2D_Y82],0.738
12,TTPGPYRSIYF [MPG_Y71],2.11
13,PYRQWYESHYA [RPS8_Y113],1.59
14,GMTRNYIIFIE [BCO2_Y294],1.18
15,IKIMGSSIRTI [IDS_Y490_Y490S],0.533
16,IKRIDYEFVEM [ADA_Y84_A83D],0.5
17,LTNDRYVATLT [IL6ST_Y396_L397V],0.537

row,Sequence,SH2 binding enrichment
1,GTCGGYCSVLG [RAB18_Y202_A198T],8.16
2,VRFVDYVLFRS [FAM189B_Y361_S358F],1.44
3,MALDRYVAICK [OR2B11_Y127],1.35
4,MTKEQYIKMNQ [ARFGEF2_Y797_R802Q],0.517
5,NIFSFYLSRDP [CTSD_Y232],1.09
6,FGTAQYCCRMG [LRRK2_Y2023_I2020T_YF],0.772
7,KKHFSYAWPFY [BRDT_Y291],1.52
8,DGTGHYLGNAC [GATA5_Y208_C210G],0.492
9,LSSNLYYRWLT [CNGA3_Y168_P163L],0.795
10,MCDSHYLESRS [CLK1_Y56],0.675
11,GGQEDYDRLRP [RAC3_Y64_A59G],0.591
12,ECKASCPGKIT [PRSS3_Y232_Y232C],0.442
13,LLKMMYLMLDN [STAT1_Y203_K201M],1.44
14,NHFKIYNPCAE [PTEN_Y68_L70P_YF],0.752
15,IKKFKYRIEEH [GJA1_Y137_G138R],0.557
16,GRFSGYKSKHG [EPHA3_Y570_C568S],0.92
